The record followed here is patent US10253089B2, “Matrix metalloproteinase cleavable protein polymers for cancer gene therapy” (The University of Utah Research Foundation, priority 2012, dated 2019).

The target of data set [1] is T1, MMP-9 (Homo sapiens, UniProt P14780). Briefly: Enzymatic digest of polymer by MMP-9, SDS-PAGE. The data set is classed as biochemical. The following applies: 1 mg/ml polymer, 10 nM and 40 nM MMP-9, 2-48 hours, room temperature. Here is the method: This buffer recipe is sourced from the Molecular Probes EnzChek Gelatinase/Collagenase Assay Kit (Invitrogen, Carlsbad, Calif.), which was used to confirm the activity of MMP-2 and MMP-9 prior to use. 2× Laemmli Buffer was supplemented with 5% β-mercaptoethanol and added 1:1 by volume to the polymer solutions, which were then placed in a PCR thermal cycler and heated to 95° C. for five minutes to denature the protein. 25 μl of each sample was added to 4-15% Bis-Tris precast PAGE gel and electrophoresis was performed at 200V until the dye front reached the bottom of the gel, approximately 30 minutes. Kaleidoscope protein standard was used as a molecular weight marker. Following electrophoresis, gels were stained with GelCode Blue (colloidal Coomassie formulation) following manufacturer's instructions for staining and destaining.
T1 sequence (P14780 94-707): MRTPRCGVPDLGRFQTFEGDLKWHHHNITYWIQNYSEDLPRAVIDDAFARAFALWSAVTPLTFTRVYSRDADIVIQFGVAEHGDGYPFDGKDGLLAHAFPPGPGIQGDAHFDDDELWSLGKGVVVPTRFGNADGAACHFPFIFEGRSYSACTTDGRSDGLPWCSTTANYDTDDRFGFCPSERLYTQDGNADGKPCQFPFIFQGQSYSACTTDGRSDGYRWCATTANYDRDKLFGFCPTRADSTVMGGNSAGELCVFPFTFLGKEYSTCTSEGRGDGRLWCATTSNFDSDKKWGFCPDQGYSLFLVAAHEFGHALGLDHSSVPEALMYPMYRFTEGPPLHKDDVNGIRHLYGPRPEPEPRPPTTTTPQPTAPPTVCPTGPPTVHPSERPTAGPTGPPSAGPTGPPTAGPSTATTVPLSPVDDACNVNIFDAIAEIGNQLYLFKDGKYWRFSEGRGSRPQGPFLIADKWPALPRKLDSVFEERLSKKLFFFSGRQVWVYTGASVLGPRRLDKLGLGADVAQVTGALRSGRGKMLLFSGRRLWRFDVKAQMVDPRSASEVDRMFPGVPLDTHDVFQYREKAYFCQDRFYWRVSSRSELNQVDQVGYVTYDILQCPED
100 μl samples of each polymer were digested with a final concentration of 10 nM and 40 nM MMP-2 or MMP-9. MMP samples were incubated at room temperature for 2, 4, 12, 24, 36, and 48 hours and samples were run on PAGE gels and stained with GelCode Blue to visualize band patterns corresponding to protein degradation.
Additionally, this digestion is dependent on both time of exposure and concentration of MMP.

In data set [2] the target is T1, MMP-9. Briefly: Hydrogel protein loss in the presence of MMP-9. Type of data set: biochemical. The note with it: 10 wt % hydrogel, MMP-9 10 nM, two weeks. Here is the method: The properties of hydrogels formed from SELPs are strongly dependent on the shear applied to liquid solutions of polymer prior to gelation. SELPs solubilized in phosphate buffered saline were loaded into a 1 ml luer-lock syringe connected at the hub to another 1 ml luer-lock syringe via two 27G needles, joined by a section of 0.0155″ HPLC tubing. The SELP solution was passed through this device at maximum hand pressure for five full bidirectional cycles, at which point it was used for studies.
Hydrogels were characterized for their sensitivity to MMP degradation in the context of protein loss from the gel, changes in mechanical properties, and release of model 100 nm fluorescent nanoparticles. […] Syringes were sealed with Parafilm and allowed to gel upright overnight at 37° C. […]
Protein loss was quantified using a Modified Lowry Assay Kit, and using known SELP solutions for the standard curve instead of the supplied bovine serum albumin, as SELP contains few Lowry-reactive amino acids. The mechanical properties of SELPs were evaluated in cyclic compression at 1 Hz and 1% strain, with ˜10 grams of preloading applied for 10 minutes to eliminate stress relaxation. Stress was measured using a 2 lb load cell. Release was quantified by measuring the fluorescence of release samples with an excitation/emission of 260/515. […]

Data set [3] can be described thus: One week acute toxicity study (weight, CBC). The data set is classed as in vivo, CD-1 immunocompetent mice. Here is the method:
Mice were anesthetized and maintained under anesthesia with 3% isofluorane in oxygen. After shaving and cleaning the injection site with 60% isopropanol, mice were subcutaneously injected in the right flank with 50 μl of solution using a 250 μl Hamilton syringe with a 26G needle. […] The injection site was gently clamped for 10 seconds to prevent leakage, after which mice were returned to their cages. For consistency, the day of viral injection was defined as day 0.
For treatment groups, a suspension of 1 mg GCV (Sigma Aldrich, St. Louis, Mo.) per ml of 0.9% physiological saline was prepared and sterilized through a 0.22 μm filter. Each day, animal weights were recorded, injection sites cleaned with 60% isopropanol, and mice injected i.p. with 1 mg/ml GCV suspension through a 26G needle sufficient for a total dose of 25 mg/kg body weight. Average dosing volume for these studies was approximately 0.6 ml. Mice were injected daily for the first four weeks of the 12 week recovery study, and for the entirety of the 1, 2, and 4 week studies.
Upon completion of each study, mice were individually euthanized using 70% CO2 in oxygen, with euthanasia confirmed by lack of breathing for 10 seconds. […] Injection sites were dissected for visual observation of local inflammation. Complete blood counts (CBCs) were performed within 2 hours of blood sample collection using a CBC-DIFF (Heska, Loveland, Colo.) blood count analyzer. Following CBC, samples were centrifuged at 10,000 rpm for 2.5 minutes and rapidly frozen at −80° C. for future analysis.
Safety studies were conducted in immunocompetent mice. In order to examine the ability of SELP to reduce the acute toxicity of the HSV-Tk/GCV system, 4-6 week old female CD-1 immunocompetent mice were injected subcutaneously with the conditions listed in Table 5. Weight was monitored daily for one week and daily injections of 25 mg/kg, intraperitoneal GCV were given to some groups as indicated in Table 5.
At the conclusion of the one week study, mice were sacrificed, and blood and organs were collected for analysis. […] These assessments were performed using a complete blood count.

B1: SELP815K: silk-elastin-like protein polymer, longer silk units, fifteen elastin units, lysine elastin unit; monomer repeated 6 times (SEQ ID NO. 21) (protein)
chain: MDPVVLQRRDWENPGVTQLNRLAAHPPFASDPMGAGSGAGAGSGAGAGSGVGVPGVGVPGVGVPGVGVPGKGVPGVGVPGVGVPGVGVPGVGVPGVGVPGVGVPGVGVPGVGVPGVGVPGVGVPGVGVPGAGAGSGAGAGSGAGAGSGAGAGSGAGAGSGAGAGAGSGAGAGSGAGAGSGVGVPGVGVPGVGVPGVGVPGKGVPGVGVPGVGVPGVGVPGVGVPGVGVPGVGVPGVGVPGVGVPGVGVPGVGVPGVGVPGAGAGSGAGAGSGAGAGSGAGAGSGAGAGSGAGAGAGSGAGAGSGAGAGSGVGVPGVGVPGVGVPGVGVPGKGVPGVGVPGVGVPGVGVPGVGVPGVGVPGVGVPGVGVPGVGVPGVGVPGVGVPGVGVPGAGAGSGAGAGSGAGAGSGAGAGSGAGAGSGAGAGAGSGAGAGSGAGAGSGVGVPGVGVPGVGVPGVGVPGKGVPGVGVPGVGVPGVGVPGVGVPGVGVPGVGVPGVGVPGVGVPGVGVPGVGVPGVGVPGAGAGSGAGAGSGAGAGSGAGAGSGAGAGSGAGAGAGSGAGAGSGAGAGSGVGVPGVGVPGVGVPGVGVPGKGVPGVGVPGVGVPGVGVPGVGVPGVGVPGVGVPGVGVPGVGVPGVGVPGVGVPGVGVPGAGAGSGAGAGSGAGAGSGAGAGSGAGAGSGAGAGAGSGAGAGSGAGAGSGVGVPGVGVPGVGVPGVGVPGKGVPGVGVPGVGVPGVGVPGVGVPGVGVPGVGVPGVGVPGVGVPGVGVPGVGVPGVGVPGAGAGSGAGAGSGAGAGSGAGAGSGAGAGSGAGAMDPGRYQDLRSHHHHHH
modifications: monomer repeated 6 times; Hybrid of Homo sapein and Bombyx mori
Consider B1, for which the “digestion by MMP-9” value with MMP-9 [1] is on record as “is not”. Besides, the “higher protein loss compared to control” value in the data set with MMP-9 [2] is “statistically insignificant”. Besides, in data set [3], the GRA stood at 1.125 ± 0.39, the LYM worked out at 4.475 ± 0.87, the MON is on record as 0.7 ± 0.27 and the WBC amounted to 6.3 ± 0.79.
